Results on one molecule are retold here after patent US20250262210A1 (TRUSTEES OF COLUMBIA UNIVERSITY IN THE CITY OF NEW YORK, published 2025).

One test addresses T1, CC2D1A (human, UniProt Q6P1N0 1-951, limits assumed).
T1 sequence (looked up): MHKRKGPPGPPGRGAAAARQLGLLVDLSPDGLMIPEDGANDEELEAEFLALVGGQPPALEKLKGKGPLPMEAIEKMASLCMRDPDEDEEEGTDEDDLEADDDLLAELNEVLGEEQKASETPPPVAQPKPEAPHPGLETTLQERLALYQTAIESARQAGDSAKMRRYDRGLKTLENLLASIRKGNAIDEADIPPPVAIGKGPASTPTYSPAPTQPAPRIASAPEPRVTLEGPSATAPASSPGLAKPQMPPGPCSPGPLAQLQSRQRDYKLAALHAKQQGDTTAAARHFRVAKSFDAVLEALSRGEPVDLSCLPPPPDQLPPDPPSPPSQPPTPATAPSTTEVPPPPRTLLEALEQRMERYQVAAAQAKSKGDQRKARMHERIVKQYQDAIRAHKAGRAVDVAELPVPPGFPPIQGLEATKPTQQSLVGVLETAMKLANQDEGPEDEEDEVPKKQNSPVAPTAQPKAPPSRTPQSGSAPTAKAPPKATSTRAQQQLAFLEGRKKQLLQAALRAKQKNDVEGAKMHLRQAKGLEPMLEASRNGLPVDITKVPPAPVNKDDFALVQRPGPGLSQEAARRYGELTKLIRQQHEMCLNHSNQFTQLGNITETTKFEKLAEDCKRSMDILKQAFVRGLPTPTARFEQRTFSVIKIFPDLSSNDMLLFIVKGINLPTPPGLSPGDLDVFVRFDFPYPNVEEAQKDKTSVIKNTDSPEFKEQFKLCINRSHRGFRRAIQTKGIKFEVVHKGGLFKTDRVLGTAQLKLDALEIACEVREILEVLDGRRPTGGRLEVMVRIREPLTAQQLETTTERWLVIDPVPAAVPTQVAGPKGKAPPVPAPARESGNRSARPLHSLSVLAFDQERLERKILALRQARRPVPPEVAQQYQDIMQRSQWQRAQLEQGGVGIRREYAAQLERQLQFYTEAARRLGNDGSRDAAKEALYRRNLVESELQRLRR
Briefly: IP/MS, LZTR1 R810W-FLAG, U87. Put shortly: (§1)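 Gel slices were reduced with 5 mM DTT, alkylated with 11 mM IAA and digested overnight at 37° C. with trypsin. Peptides were analysed on an Orbitrap Fusion Tribrid by LC-MS/MS.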

The target in another test is T2, MED24 (human, UniProt O75448 1-989, limits assumed).
T2 sequence (looked up): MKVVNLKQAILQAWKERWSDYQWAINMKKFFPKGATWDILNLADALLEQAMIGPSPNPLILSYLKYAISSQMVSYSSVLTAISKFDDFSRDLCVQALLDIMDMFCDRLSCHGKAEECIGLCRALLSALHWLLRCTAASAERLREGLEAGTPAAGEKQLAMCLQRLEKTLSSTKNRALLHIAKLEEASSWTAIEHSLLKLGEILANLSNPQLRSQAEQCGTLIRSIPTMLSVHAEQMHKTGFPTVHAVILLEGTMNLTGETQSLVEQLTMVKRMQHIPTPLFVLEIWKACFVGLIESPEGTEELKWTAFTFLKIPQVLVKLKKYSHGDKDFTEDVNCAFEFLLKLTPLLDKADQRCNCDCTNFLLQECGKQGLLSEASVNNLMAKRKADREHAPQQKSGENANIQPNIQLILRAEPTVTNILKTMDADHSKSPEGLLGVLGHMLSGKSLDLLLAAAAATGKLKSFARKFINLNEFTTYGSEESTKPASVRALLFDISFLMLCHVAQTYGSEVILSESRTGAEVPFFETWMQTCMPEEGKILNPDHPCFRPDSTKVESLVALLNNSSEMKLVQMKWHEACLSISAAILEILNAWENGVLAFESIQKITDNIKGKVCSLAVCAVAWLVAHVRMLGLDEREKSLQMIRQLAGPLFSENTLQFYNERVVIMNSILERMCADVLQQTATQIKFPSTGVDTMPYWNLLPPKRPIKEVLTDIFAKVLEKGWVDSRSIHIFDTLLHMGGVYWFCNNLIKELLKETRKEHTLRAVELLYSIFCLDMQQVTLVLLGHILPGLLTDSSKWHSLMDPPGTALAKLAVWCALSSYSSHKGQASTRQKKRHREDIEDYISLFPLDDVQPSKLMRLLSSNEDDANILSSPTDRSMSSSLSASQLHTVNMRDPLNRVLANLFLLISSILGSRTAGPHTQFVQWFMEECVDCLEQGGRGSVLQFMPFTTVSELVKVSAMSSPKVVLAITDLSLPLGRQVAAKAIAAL
Briefly: IP/MS, LZTR1 R810W-FLAG, U87. In outline:
as §1

B1: LZTR1 R810W-FLAG (other, human, UniProt Q8N653 1-840, looked up)
chain: MAGPGSTGGQIGAAALAGGARSKVAPSVDFDHSCSDSVEYLTLNFGPFETVHRWRRLPPCDEFVGARRSKHTVVAYKDAIYVFGGDNGKTMLNDLLRFDVKDCSWCRAFTTGTPPAPRYHHSAVVYGSSMFVFGGYTGDIYSNSNLKNKNDLFEYKFATGQWTEWKIEGRLPVARSAHGATVYSDKLWIFAGYDGNARLNDMWTIGLQDRELTCWEEVAQSGEIPPSCCNFPVAVCRDKMFVFSGQSGAKITNNLFQFEFKDKTWTRIPTEHLLRGSPPPPQRRYGHTMVAFDRHLYVFGGAADNTLPNELHCYDVDFQTWEVVQPSSDSEVGGAEVPERACASEEVPTLTYEERVGFKKSRDVFGLDFGTTSAKQPTQPASELPSGRLFHAAAVISDAMYIFGGTVDNNIRSGEMYRFQFSCYPKCTLHEDYGRLWESRQFCDVEFVLGEKEECVQGHVAIVTARSRWLRRKITQARERLAQKLEQEAAPVPREAPGVAAGGARPPLLHVAIREAEARPFEVLMQFLYTDKIKYPRKGHVEDVLLIMDVYKLALSFQLCRLEQLCRQYIEASVDLQNVLVVCESAARLQLSQLKEHCLNFVVKESHFNQVIMMKEFERLSSPLIVEIVRRKQQPPPRTPLDQPVDIGTSLIQDMKAYLEGAGAEFCDITLLLDGHPRPAHKAILAARSSYFEAMFRSFMPEDGQVNISIGEMVPSRQAFESMLRYIYYGEVNMPPEDSLYLFAAPYYYGFYNNRLQAYCKQNLEMNVTVQNVLQILEAADKTQALDMKRHCLHIIVHQFTKVSKLPTLWSLSQQLLLDIIDSLASHISDKQCAELGADI
notes: Stably expressed in U87 cells by lentivirus; also called LZTR1-FLAG-R810W; LZTR1 RW; not shown: FLAG tag
As for B1, the binding result in the test with CC2D1A and with MED24 was “binds” in each case.
